# Source: the nanobody polyreactivity screen of Harvey et al. (2022)
# Assay: yeast display, Sf9 membrane polyspecificity reagent, FACS + sequencing; frameworks hold sequencing errors
# How it was run: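 Polyreactivity labels are assigned by the sorting gate from which each nanobody was recovered. The gates were low and high (top ~1%), set on anti-HA fluorescence for expression and streptavidin fluorescence for reagent binding. Before sorting, galactose-induced (36–48 hours) yeast display cells were stained for 1 hour at 4 °C with 10% biotinylated, detergent-solubilized Sf9 membrane reagent.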
row,Sequence,polyreactivity (PSR sort gate)
1,QVQLVESGGGLVKAGGSLRLSCADSGSIFWYYTMGRYRQAPGKEREFVAAISWSGGGSTYYADSVKGRFTISRENAKYTVYLQMNSLKPEDTAVYYCNGDWTSYGFVTRLDYWGHGTQVTVSS,low polyreactivity
2,QVQLVESGGGLVKAGGSLRLSCAPSGSTFKSYSMGWYRQAPGIECELVAAITSGGRTYYADSVKGRFTISRDNAKNTVYLQMNSLKPEDTAVYYCAALRVQQVKSYYYWGQGTQVTVSS,high polyreactivity
3,QVQLVESGGGLVKAGGSLRLSCASSGSTFVGNAMGWYRQAPGKERELVAAISVNDGTTYYADSVKGRFTISRDNAKNTVYLQMNSLKPEDTAVDYCNVKRYGCRSDYWGQGTQVTVSS,high polyreactivity
4,QVQLVESGGGLVKAGGSLRLSCDSSGGTFSTYAMGWYRQAPGKERELVAAISWRGGSTYYAVSVKGRFTISRDNAKNTVYLQMNSLKPEYNAVYYCAAYYYRGWLLYWDEMYYWGQGTQVTVSS,high polyreactivity
5,QVQLVESGGGLVKAGGSLRLSFAASGRNFRRNAMGWYRQAPGRERELVAAISSSGGSTYYADSVKGRFTISRDNAKNTVYLQMNSLKPEDTAVYYCAVRSRFGYYWGQGTQVTVSS,high polyreactivity
6,QVQLVESGGGLVKAGGSLRLSSAASGSTFERYAMGWYRQAPGNERELVAAINWSGGGTYYADSVKGRFTISRDTAKNTVYLQMNSLKPEDTAVYYCAADSGTVVFSLWWYEYYYWGQGNQVTVSS,low polyreactivity
7,QVQLVESGGGLVKEGGSLRLSCAASGSIYYENTMGWYRQAPGKERELVASISCGGSTYADSVKGRFTISRDNAKNSVYLQMYSLKAEDSAVYYCNADSSTEYDYWGQGTQVTVSS,low polyreactivity
8,QVQLVESGGGLVLAGGSLRLSCAASGIIFKIYAMGWFRQAPGKEMELVADITSVGSTKYADSVKGRFTISRDNAKNTVYLQMNSLKPEDTAVYYCATDWVTSHDDDYWGQGTQVTVSS,low polyreactivity
9,QVQLVESGGGLVLAGGSLRLSCAASGRIFSYYAMGWYRQAPGQERELVAAISWNGGSTYYADSVKGRFTISRDNAKNTVYLQMNSLKPEDTAVYYCAVLPHYEYDYWGQGTQVTVSS,high polyreactivity
10,QVQLVESGGGLVLAGGSLRLSCAASGRIYRIYNKGWYRQAPGKERELVAAISKSGGGTYYADSVKGRFTISRDNAKNTVYLQMNSLKPEDTAVYYCTTANWDRKSRVFRQSTVGYGYWGQGTQVTVSS,high polyreactivity
11,QVQLVESGGGLVLAGGSLRLSCAASGSISTNYAMGWYRQAPGKERELVAAISDSSGSTYYADSVKGRFTISRDNAKNIVYLQMNSLKPEDTAVYYCNADSQGGRDVNYDYEYYYWGQGTQVTVSS,low polyreactivity
12,QVQLVESGGGLVLAGGSLRLSCAASGYTFTIYAMGWYIQGPGKERELVSAITGRGGRTNYADSVKGRFTISRDNAKNTVYLQMNSLKPEDTAVYYCNAVTKVVYHGPYGYDYWGQGTQVTVSS,high polyreactivity
13,QVQLVESGGGLVLAGGSRRLSCASSGSTFPLYTMGWYRQAPGKERELVAAINYGGTSTYYADSVKGRFTFSRVKAKNTVYLQRNSLKPEDTAVYYCAAERYFLYLCRKFGYWGQGTQVTVSW,high polyreactivity
14,QVQLVESGGGLVLAGGTLRISCAASGSIFYRNTMGWYRLAPVKERELVAAITRGGGRTYYADSVKARFTISRDTAKNTVFLQMNSLKPEDSAVYYCAVQAFSHTSSRMDYWGQGSQVTVSS,high polyreactivity
15,QVQLVESGGGLVLARGTLRLSCPASGFTFSRYAMGWYRQAPGKERELVAAISRTGGRTYYADSVKGRFTISRDNAKNTVYLQMNSLKPVDTAVYYCARLPVHSHLRQTYAMEYWGQGTQVTVSS,high polyreactivity
16,QVQLVESGGGLVNAGGSLRLSCAASGRITGDNAMVWYRQAPGKVRELVAAISTSRRTYYADSVKGRFTISRDNAKNTVYLQMNSLKPEDTAVYYCNAFGSNGGAMDYWGQGTQLTVSS,high polyreactivity
17,QVQLVESGGGLVNAGGTLRLSCAASGSTFYRNAMGWYRQAPGKERELVATITYSGGSTYYADSVKGRFTNSRDNAKNTVYLQMNSLKPEDTAVYYCAVRRLRRNFVSYYYWGQGTQVTVSS,high polyreactivity
18,QVQLVESGGGLVPAGGSLRLSCAASGFTFRRYDMGWYRHAPGKERELVAAISWSSDGTYYADSVKGRFTISRDNAKNTVYLQINSLKPEDTAVYYCAARWGTKSGRYDYWGQGTQVTVSS,high polyreactivity
19,QVQLVESGGGLVPAGGSLRLSCAASGRIFGWYAMGWYRQAPGKEREFVAAITVTGGSTYYADSVKGRFTISRDNAKNTVYLQMNSLKPEDTAVYYCAADRWYTRTGFDYWGQGTQVTVSS,low polyreactivity
20,QVQLVESGGGLVPAGGSLRLSCAASGRTFIKYAMGWYRQAPGKERELVAAISRSAGSTYYADSVKGRFTISRDNAKNTVYLQMNSLKPEDTAVYYCNAVTSSYLRFDYWGQGTQVSVSS,high polyreactivity
21,QVQLVESGGGLVQAAGSLRLICAASGLTFGANDMGWSRQAPGTERELVAAIDWSGGSTFFADSVKGRFTISRDNAKNTVYLQMNTLKPEDTAVYYCAALGFGYPYPEYDSWGQGTQVTVSA,low polyreactivity

row,Sequence,polyreactivity (PSR sort gate)
1,QVQLVESGGGLVQAAGSLRLSCAASGFTFYSNVMGWYRQAPGKERELVAAITGRGSRTYYEDSVNGRFTISRDNAKNTVYLQMNSLKTEDTPVYYCAARYTNYGGYYWGQGTQVTVSS,high polyreactivity
2,QVQLVESGGGLVQAAGSLRLSCAASGFTIAHYAMGRYSHAPGKERELVAGISRSGGSTYYADSVKGRFTISRDNAKNTVYLQMNILKPEDTAVYYCATVTYLKRVRYQSGYDSWGQGTQVTVSS,low polyreactivity
3,QVQLVESGGGLVQAAGSLRLSCAASGITFGLYTMGWYRQAPGKERELVAAISWSGGGTYYADSVKGRFTISRDNAKNTVYLQMNSLKPEDTAVYYCAAPVRGSYPYSVGVDYWGQGTQVTVSS,high polyreactivity
4,QVQLVESGGGLVQAAGSLRLSCAASGITSRFYVMGWYRQAPGKERESVAAISTRGTSTYYADSVKGRLPISRDNAKNTVYLQMNSLKPEDTAVYYCAAVGGYPYQYPYGSWGQGSQVTVSS,high polyreactivity
5,QVQLVESGGGLVQAAGSLRLSCAASGRIFEIYAMGWYRQAPGKERELVAGITSVGSTNYADSVKGRFTISRDNAKNTVYLQMNSLKPVDTAVYYCAADTSVHSEVDYCGQGTQVTVSS,low polyreactivity
6,QVQLVESGGGLVQAAGSLRLSCAASGRIFKLYAMGWYRQAPGKDRELVAGITASGGNTYYADSVKGRFTISRDNAKNTVYLLMNSLKPEDTAVYYCNADRYNKYWYDYWGQGTQVTVSS,high polyreactivity
7,QVQLVESGGGLVQAAGSLRLSCAASGSIFDPNVMGWYRQAPGKERELVATISSDGTTTYADSVKGRFTISRDNAKNTVYLQMNSLKPEDTAVYYCATEWDIDPRRSVGYPIGYGYWGQGTQVTVSS,low polyreactivity
8,QVQLVESGGGLVQAAGSLRLSCAASGSIFSTYAMGWYRQAPGKERELVAAINRGTSTNYADSVKGRFTISRDNAKNTVYLQMNSLKPEDTAVYYCAAYYRGRYGPRRSEYWGQGTQVTVSS,high polyreactivity
9,QVQLVESGGGLVQAAGSLRLSCAASVIIFGLYTMGWYRQAPGKERELVAAISDSGGRTYYADSVKGRFTISLDNAKNTVFLQMNSLKPEDTAVYYCAAEFWYVWEYNYWGQGTQVTVSS,high polyreactivity
10,QVQLVESGGGLVQAAGSLRLSSAASGSIFDANANGWYRQPPGKERELVAAITSGGSTYYADSVKGRFTISRVNAKNTVYLQMNSLKPEDTAVYYCAAQYYDYKTTYDYWGKGTQVTVSS,high polyreactivity
11,QVQLVESGGGLVQAEGRLRLSCAASGRIFPHYAMGWYRQAPGKERELVAAISRSGVSTYYADSVKGRFTISRDIAKNTVYLQMNSLKPEDTAVYYCASRSYILGWRYDYWGQGTQVTVSS,high polyreactivity
12,QVQLVESGGGLVQAEGSLRLSCAASGRTSVLYAMGWNRQAPGKEREFVAAITWNSGSTYYADSVKGRFTISRDNAKNTVYIQMTRLKPEDTAVYYCNADYYFSSYRSTYDYWGQGTQVTVSS,low polyreactivity
13,QVQLVESGGGLVQAGAILRLICAASGRIFYRYAMGWYRQAPGKERELVAAISSGGGRTYYADSVKGRFTLSRDNAKNTVYLQMNSLKPEDTAVYYCAASGNSYEQTGGYWGQGTQVTVSS,high polyreactivity
14,QVQLVESGGGLVQAGASLRLSCAASGFISYYYAMGWYRQAPGKERELVAAITKSGGSTYYADSVKGRFTISRDNAKNTVYLQMNSLKREDTAVYYCAAVRSTRNSTSRLYGYWGQGTQVTVSS,low polyreactivity
15,QVQLVESGGGLVQAGASLRLSCAASGGIFAYYAMGWYRQAPGKERELVAAINRSGGSTRYADSVKGRFTNSRDNAKNTVFLQMNSLKPEETAVYYCATKRSTGYYWGQGTQVTVSS,high polyreactivity
16,QVQLVESGGGLVQAGASLRLSCAASGGILRQNTMGWYRQAPGKERELVAAISSSGGRTYYADSVKGRFTISRDNAKNTVYLQMNSLKPEDTAVYYCNVPAKRYPYYIRQSTVSPGNYWGQGTKVTVSS,high polyreactivity
17,QVQLVESGGGLVQAGASLRLSCAASGIIVHEYAMGWYRQAPGKERELVASISWNDGSTYADSVKGRFTISRDNAKITVYLQMNCLKPEDTAVYYCAADYPYYPFSSIYDYWGQGTQVTVSS,low polyreactivity
18,QVQLVESGGGLVQAGASLRLSCAASGITFDPNAMGWYRQAPGKERELVAAISTRGGSTYYADSVKGRFTISRDNAKNTVYLQMNSLKPEETAVYYCNALRTGRWFDYWGQGTQVTVSS,high polyreactivity
19,QVQLVESGGGLVQAGASLRLSCAASGNTFDVYAMGWYREAPGKERELVAAISRRGGSTSYADSVKGRFTISRDNAKNTFYFHMNSLKPEDTAVYYCNTDPGKYTPFDYLGQGTQVTVSS,high polyreactivity
20,QVQLVESGGGLVQAGASLRLSCAASGRIYPVYTMGWYRQAPGKERELVAAITSSGGSTYYADSVKGSFTISRDNAKNTVYLQMNSLKPEDTAVYDCAKRAGWAYYYWGQGTQVTVSS,high polyreactivity
